What was measured:
[1] = molecular target: Human polymeric immunoglobulin receptor (human) (UniProt P01833); assay: SPR (Biacore)
[2] = molecular target: T1, Mouse polymeric immunoglobulin receptor (mouse) (UniProt O70570); assay: SPR (Biacore)
T1 sequence (looked up): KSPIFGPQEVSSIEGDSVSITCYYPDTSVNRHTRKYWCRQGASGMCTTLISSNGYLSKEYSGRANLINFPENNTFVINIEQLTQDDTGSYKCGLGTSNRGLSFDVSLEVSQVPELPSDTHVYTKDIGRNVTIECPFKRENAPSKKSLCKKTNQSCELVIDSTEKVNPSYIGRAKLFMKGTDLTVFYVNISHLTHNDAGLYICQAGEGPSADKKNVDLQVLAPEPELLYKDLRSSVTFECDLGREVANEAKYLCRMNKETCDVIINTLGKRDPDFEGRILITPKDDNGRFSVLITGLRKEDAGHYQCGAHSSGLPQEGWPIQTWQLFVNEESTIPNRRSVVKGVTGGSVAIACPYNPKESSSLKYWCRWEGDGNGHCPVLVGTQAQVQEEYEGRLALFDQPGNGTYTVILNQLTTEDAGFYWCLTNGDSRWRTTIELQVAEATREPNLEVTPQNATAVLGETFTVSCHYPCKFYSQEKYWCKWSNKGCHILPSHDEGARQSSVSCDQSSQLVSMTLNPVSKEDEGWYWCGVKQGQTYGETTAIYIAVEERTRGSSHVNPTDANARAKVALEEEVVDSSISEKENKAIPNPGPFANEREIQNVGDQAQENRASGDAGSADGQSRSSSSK

[3] = molecular target: T1, Mouse polymeric immunoglobulin receptor (mouse); assay: SPR (Biacore); panel shown again on D00107
[4] = molecular target: Human FcαRI (human) (UniProt P24071); assay: Wasatch array SPR, antibody immobilised, n>=3
UniProt P24071, sequence (P24071 22-227 limits assumed): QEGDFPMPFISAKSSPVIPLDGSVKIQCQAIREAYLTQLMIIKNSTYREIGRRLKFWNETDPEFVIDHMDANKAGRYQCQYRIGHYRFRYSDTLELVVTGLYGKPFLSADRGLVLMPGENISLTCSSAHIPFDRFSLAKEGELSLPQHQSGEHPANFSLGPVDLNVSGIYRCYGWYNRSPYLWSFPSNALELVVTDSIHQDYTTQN

UniProt P01833, sequence (P01833 19-638 limits assumed): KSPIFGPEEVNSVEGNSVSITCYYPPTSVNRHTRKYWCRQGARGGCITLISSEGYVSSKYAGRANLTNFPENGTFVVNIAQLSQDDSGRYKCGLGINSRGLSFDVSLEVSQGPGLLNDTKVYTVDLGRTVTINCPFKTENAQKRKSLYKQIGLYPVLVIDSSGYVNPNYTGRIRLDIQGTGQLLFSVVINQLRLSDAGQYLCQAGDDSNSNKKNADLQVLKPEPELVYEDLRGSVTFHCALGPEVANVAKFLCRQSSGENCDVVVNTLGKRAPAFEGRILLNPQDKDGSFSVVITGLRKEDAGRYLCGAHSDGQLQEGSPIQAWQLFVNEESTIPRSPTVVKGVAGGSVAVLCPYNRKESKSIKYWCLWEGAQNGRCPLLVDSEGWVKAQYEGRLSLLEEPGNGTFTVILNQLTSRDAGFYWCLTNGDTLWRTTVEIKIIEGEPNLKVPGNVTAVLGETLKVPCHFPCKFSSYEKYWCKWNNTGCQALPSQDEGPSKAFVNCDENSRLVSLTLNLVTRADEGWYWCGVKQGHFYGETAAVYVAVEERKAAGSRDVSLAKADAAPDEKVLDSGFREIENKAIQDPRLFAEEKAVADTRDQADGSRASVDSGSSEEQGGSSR

| Substance | Kd [1] | Kd [2] | Kd [3] | Kd [4] |
| --- | --- | --- | --- | --- |
| Glycosylated IgA2m2.Fc only Tetramer | 0.98 nM | 0.79 nM | 0.79 nM | – |
| Human serum IgA monomer (antibody) | – | – | – | 1750 nM |

— US20220048990A1
